Test results: article PMC10889886

Target: HCoV-OC43 Spike antigen (HCoV-OC43) (UniProt P36334)
Test: SEC-MALS

**Q.** With “HCoV-OC43 Spike antigen (from UniProt P36334 14-1353) (natural protein)” as the substance, how does the stoichiometry N read?
**A.** 3
